This assay has as its target Human FANCD2, non-tagged (human, UniProt Q9BXW9-2 1-1451). In words: co-IP.

Sequence of Human FANCD2, non-tagged (Q9BXW9 whole entry): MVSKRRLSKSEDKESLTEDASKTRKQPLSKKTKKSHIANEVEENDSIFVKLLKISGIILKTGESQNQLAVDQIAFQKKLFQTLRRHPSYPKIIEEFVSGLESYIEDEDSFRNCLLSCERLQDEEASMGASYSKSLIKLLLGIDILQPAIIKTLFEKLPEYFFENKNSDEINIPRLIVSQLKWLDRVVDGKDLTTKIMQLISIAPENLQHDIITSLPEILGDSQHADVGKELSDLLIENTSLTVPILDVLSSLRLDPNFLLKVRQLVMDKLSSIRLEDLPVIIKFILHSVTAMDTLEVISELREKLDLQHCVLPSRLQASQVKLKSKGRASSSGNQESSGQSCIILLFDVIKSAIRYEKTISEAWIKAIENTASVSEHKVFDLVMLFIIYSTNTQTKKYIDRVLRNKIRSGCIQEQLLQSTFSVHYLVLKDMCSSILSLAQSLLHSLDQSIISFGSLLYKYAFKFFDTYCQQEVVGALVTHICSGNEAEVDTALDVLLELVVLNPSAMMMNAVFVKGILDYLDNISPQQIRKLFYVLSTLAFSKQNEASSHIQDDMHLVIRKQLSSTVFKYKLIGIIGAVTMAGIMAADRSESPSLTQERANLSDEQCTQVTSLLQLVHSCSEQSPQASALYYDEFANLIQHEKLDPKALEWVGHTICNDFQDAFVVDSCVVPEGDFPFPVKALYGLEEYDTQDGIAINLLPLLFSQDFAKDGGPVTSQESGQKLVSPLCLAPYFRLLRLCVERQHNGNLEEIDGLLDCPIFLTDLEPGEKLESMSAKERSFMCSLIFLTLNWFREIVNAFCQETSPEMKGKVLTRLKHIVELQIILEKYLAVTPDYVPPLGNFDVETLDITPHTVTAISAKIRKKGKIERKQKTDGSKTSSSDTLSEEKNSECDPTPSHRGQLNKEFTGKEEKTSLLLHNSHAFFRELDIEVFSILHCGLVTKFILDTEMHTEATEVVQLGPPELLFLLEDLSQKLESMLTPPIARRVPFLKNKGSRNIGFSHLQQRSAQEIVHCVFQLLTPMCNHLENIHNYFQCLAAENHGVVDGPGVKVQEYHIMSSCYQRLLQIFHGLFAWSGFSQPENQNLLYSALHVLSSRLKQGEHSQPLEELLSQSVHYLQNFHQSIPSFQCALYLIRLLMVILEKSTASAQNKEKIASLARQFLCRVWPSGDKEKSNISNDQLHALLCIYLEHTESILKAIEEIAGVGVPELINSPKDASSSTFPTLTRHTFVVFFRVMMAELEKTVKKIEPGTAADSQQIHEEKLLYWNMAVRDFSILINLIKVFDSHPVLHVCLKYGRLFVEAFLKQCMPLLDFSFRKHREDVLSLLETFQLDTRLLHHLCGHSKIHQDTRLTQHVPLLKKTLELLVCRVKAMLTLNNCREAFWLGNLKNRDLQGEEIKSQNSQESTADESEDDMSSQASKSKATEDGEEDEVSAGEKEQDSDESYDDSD

B1: FANCI-(1001–1328), hexahistidine-tagged (domain or fragment, human, UniProt Q9NVI1-3 1001-1328, looked up)
chain: PQFVQMLSWTSKICKENSREDALFCKSLMNLLFSLHVSYKSPVILLRDLSQDIHGHLGDIDQDVEVEKTNHFAIVNLRTAAPTVCLLVLSQAEKVLEEVDWLITKLKGQVSQETLSEEASSQATLPNQPVEKAIIMQLGTLLTFFHELVQTALPSGSCVDTLLKDLCKMYTTLTALVRYYLQVCQSSGGIPKNMEKLVKLSGSHLTPLCYSFISYVQNKSKSLNYTGEKKEKPAAVATAMARVLRETKPIPNLIFAIEQYEKFLIHLSKKSKVNLMQHMKLSTSRDFKIKGNILDMVLREDGEDENEEGTASEHGGQNKEPAKKKRKK
For the molecule B1, the binding result was “binds”.

B2: FANCI-D1301A, hexahistidine-tagged (EDGE motif mutant) (natural protein, human, UniProt Q9NVI1-3 1-1328, looked up)
chain: MDQKILSLAAEKTADKLQEFLQTLREGDLTNLLQNQAVKGKVAGALLRAIFKGSPCSEEAGTLRRRKIYTCCIQLVESGDLQKEIASEIIGLLMLEAHHFPGPLLVELANEFISAVREGSLVNGKSLELLPIILTALATKKENLAYGKGVLSGEECKKQLINTLCSGRWDQQYVIQLTSMFKDVPLTAEEVEFVVEKALSMFSKMNLQEIPPLVYQLLVLSSKGSRKSVLEGIIAFFSALDKQHNEEQSGDELLDVVTVPSGELRHVEGTIILHIVFAIKLDYELGRELVKHLKVGQQGDSNNNLSPFSIALLLSVTRIQRFQDQVLDLLKTSVVKSFKDLQLLQGSKFLQNLVPHRSYVSTMILEVVKNSVHSWDHVTQGLVELGFILMDSYGPKKVLDGKTIETSPSLSRMPNQHACKLGANILLETFKIHEMIRQEILEQVLNRVVTRASSPISHFLDLLSNIVMYAPLVLQSCSSKVTEAFDYLSFLPLQTVQRLLKAVQPLLKVSMSMRDCLILVLRKAMFANQLDARKSAVAGFLLLLKNFKVLGSLSSSQCSQSLSVSQVHVDVHSHYNSVANETFCLEIMDSLRRCLSQQADVRLMLYEGFYDVLRRNSQLANSVMQTLLSQLKQFYEPKPDLLPPLKLEACILTQGDKISLQEPLDYLLCCIQHCLAWYKNTVIPLQQGEEEEEEEEAFYEDLDDILESITNRMIKSELEDFELDKSADFSQSTSIGIKNNICAFLVMGVCEVLIEYNFSISSFSKNRFEDILSLFMCYKKLSDILNEKAGKAKTKMANKTSDSLLSMKFVSSLLTALFRDSIQSHQESLSVLRSSNEFMRYAVNVALQKVQQLKETGHVSGPDGQNPEKIFQNLCDITRVLLWRYTSIPTSVEESGKKEKGKSISLLCLEGLQKIFSAVQQFYQPKIQQFLRALDVTDKEGEEREDADVSVTQRTAFQIRQFQRSLLNLLSSQEEDFNSKEALLLVTVLTSLSKLLEPSSPQFVQMLSWTSKICKENSREDALFCKSLMNLLFSLHVSYKSPVILLRDLSQDIHGHLGDIDQDVEVEKTNHFAIVNLRTAAPTVCLLVLSQAEKVLEEVDWLITKLKGQVSQETLSEEASSQATLPNQPVEKAIIMQLGTLLTFFHELVQTALPSGSCVDTLLKDLCKMYTTLTALVRYYLQVCQSSGGIPKNMEKLVKLSGSHLTPLCYSFISYVQNKSKSLNYTGEKKEKPAAVATAMARVLRETKPIPNLIFAIEQYEKFLIHLSKKSKVNLMQHMKLSTSRDFKIKGNILDMVLREAGEDENEEGTASEHGGQNKEPAKKKRKK
Take B2: the binding result is reported as “binds”.

These data come from paper PMC2782037 (The Journal of Biological Chemistry, 2009).
